{"source": "paper PMC6002036", "about": "“Characterization of a non-nudix pyrophosphatase points to interplay between flavin and NAD(H) homeostasis in Saccharomyces cerevisiae” (PLoS ONE, 2018)", "key": {"[1]": {"substrate": "Cc1cc2nc3c(=O)[nH]c(=O)nc-3n(C[C@H](O)[C@H](O)[C@H](O)COP(=O)(O)OP(=O)(O)OC[C@H]3O[C@@H](n4cnc5c(N)ncnc54)[C@H](O)[C@@H]3O)c2cc1C", "test": "HPLC fluorescence of FMN product, Michaelis-Menten fit", "format": "biochemical, Saccharomyces cerevisiae", "settings": "4 mM CoCl2, 200 mM KCl, 100 mM Hepes-KOH pH 7.0, 30 °C", "source_text": "HPLC fluorescence of FMN product, Michaelis-Menten fit on Fpy1p"}, "[2]": {"target": "the molecule itself", "test": "SEC; gel filtration on Superdex 200 10/300 in 50 mM potassium phosphate pH 7.5, 150 mM KCl, 100 mM L-arginine HCl, 0.1% Tween-20, 1 mM THP; calibrated with standards of 12.4-200 kDa; Fpy1p detected in fractions by enzymatic assay"}}, "data": [{"protein": "Fpy1p (protein encoded by YMR178w), recombinant with V5 epitope and 6xHis tag (enzyme, S. cerevisiae, UniProt Q03219 1-274, looked up, Fpy1p, the pyrophosphatase encoded by ORF YMR178w of S. cerevisiae; whole open reading frame without the stop codon, amplified from the start codon; also called YMR178wp; source: S. cerevisiae strain Y258 (pYES-DEST52, galactose induction), purified (two-step IMAC: Cu2+ then Ni2+)) MVKVTAACIIIGDEVLNGKVVDTNSTFFAKYCFDHGIQLKEIATIGDDETQIVDTVRRLVKNYDFIISTGGIGPTHDDITYECMAKSFNLPCELDEECKERMRHKSDPEARLDADALKAHYQMATMPKGTNVKNYYVCDDLWVPICSISHKMYILPGIPQLFARMLKAFTPTLKKIYNLDKDPREYVRYFVRTHLTESQISKELKLIQDESTKVSEAIKIGSYPHFGMGFNTVSILGEKKDDSYLKSIVNRVVNNLEGEVISSELENKFSNQES", "values": [{"measurement": "Km", "setting": "[1]", "result": "16.1 ± 2.1", "unit": "µM"}, {"measurement": "kcat", "setting": "[1]", "result": 0.38, "unit": "s⁻¹"}, {"measurement": "kcat/Km", "setting": "[1]", "result": 23000, "unit": "M⁻¹ s⁻¹"}, {"measurement": "stoichiometry N", "setting": "[2]", "result": 3}]}]}
